# Measured values from paper PMC10299379.
# Assays:
# [1] = biological target: EBV LMP2A-N (latent membrane protein 2A, N-terminal domain, amino acids 1-119) (Epstein-Barr virus) (UniProt P13285); test: SPR; Biacore T200; LMP1-C and LMP2A-N immobilised on sensor chip CM5 as ligands; affibody molecules injected as analytes in serial dilutions; 1:1 Langmuir fit
# [2] = biological target: EBV LMP1-C (latent membrane protein 1, C-terminal domain, amino acids 186-387) (Epstein-Barr virus) (UniProt P03230); test: as above
# Sequence of UniProt P03230 (P03230 186-386): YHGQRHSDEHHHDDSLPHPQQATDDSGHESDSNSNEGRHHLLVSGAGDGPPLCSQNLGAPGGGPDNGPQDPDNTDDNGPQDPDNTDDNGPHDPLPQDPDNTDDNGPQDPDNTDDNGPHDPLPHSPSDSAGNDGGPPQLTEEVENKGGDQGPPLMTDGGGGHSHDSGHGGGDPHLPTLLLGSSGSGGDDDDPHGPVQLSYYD
# Sequence of UniProt P13285 (P13285 1-119): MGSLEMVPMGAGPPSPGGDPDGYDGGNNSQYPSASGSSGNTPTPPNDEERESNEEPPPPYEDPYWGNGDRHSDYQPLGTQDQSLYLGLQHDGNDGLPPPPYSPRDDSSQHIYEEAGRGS
substance,measurement,setting,value
SPA-Z scaffold (ZWT) (domain or fragment),koff,[1],5.97e-05 s⁻¹
same,koff,[2],0.00246 s⁻¹
